Test results as given in IntAct's records for PubMed 19805355.

B1: ATP-sensitive inward rectifier potassium channel 11 (Homo sapiens), Q14654 (parent)
chain: MLSRKGIIPEEYVLTRLAEDPAKPRYRARQRRARFVSKKGNCNVAHKNIREQGRFLQDVFTTLVDLKWPHTLLIFTMSFLCSWLLFAMAWWLIAFAHGDLAPSEGTAEPCVTSIHSFSSAFLFSIEVQVTIGFGGRMVTEECPLAILILIVQNIVGLMINAIMLGCIFMKTAQAHRRAETLIFSKHAVIALRHGRLCFMLRVGDLRKSMIISATIHMQVVRKTTSPEGEVVPLHQVDIPMENGVGGNSIFLVAPLIIYHVIDANSPLYDLAPSDLHHHQDLEIIVILEGVVETTGITTQARTSYLADEILWGQRFVPIVAEEDGRYSVDYSKFGNTVKVPTPLCTARQLDEDHSLLEALTLASARGPLRKRSVPMAKAKPKFSISPDSLS

Variants of: B1
Details: with ank2_human ANK2, Q01484
Chain of ank2_human ANK2, Q01484 (Q01484 whole entry): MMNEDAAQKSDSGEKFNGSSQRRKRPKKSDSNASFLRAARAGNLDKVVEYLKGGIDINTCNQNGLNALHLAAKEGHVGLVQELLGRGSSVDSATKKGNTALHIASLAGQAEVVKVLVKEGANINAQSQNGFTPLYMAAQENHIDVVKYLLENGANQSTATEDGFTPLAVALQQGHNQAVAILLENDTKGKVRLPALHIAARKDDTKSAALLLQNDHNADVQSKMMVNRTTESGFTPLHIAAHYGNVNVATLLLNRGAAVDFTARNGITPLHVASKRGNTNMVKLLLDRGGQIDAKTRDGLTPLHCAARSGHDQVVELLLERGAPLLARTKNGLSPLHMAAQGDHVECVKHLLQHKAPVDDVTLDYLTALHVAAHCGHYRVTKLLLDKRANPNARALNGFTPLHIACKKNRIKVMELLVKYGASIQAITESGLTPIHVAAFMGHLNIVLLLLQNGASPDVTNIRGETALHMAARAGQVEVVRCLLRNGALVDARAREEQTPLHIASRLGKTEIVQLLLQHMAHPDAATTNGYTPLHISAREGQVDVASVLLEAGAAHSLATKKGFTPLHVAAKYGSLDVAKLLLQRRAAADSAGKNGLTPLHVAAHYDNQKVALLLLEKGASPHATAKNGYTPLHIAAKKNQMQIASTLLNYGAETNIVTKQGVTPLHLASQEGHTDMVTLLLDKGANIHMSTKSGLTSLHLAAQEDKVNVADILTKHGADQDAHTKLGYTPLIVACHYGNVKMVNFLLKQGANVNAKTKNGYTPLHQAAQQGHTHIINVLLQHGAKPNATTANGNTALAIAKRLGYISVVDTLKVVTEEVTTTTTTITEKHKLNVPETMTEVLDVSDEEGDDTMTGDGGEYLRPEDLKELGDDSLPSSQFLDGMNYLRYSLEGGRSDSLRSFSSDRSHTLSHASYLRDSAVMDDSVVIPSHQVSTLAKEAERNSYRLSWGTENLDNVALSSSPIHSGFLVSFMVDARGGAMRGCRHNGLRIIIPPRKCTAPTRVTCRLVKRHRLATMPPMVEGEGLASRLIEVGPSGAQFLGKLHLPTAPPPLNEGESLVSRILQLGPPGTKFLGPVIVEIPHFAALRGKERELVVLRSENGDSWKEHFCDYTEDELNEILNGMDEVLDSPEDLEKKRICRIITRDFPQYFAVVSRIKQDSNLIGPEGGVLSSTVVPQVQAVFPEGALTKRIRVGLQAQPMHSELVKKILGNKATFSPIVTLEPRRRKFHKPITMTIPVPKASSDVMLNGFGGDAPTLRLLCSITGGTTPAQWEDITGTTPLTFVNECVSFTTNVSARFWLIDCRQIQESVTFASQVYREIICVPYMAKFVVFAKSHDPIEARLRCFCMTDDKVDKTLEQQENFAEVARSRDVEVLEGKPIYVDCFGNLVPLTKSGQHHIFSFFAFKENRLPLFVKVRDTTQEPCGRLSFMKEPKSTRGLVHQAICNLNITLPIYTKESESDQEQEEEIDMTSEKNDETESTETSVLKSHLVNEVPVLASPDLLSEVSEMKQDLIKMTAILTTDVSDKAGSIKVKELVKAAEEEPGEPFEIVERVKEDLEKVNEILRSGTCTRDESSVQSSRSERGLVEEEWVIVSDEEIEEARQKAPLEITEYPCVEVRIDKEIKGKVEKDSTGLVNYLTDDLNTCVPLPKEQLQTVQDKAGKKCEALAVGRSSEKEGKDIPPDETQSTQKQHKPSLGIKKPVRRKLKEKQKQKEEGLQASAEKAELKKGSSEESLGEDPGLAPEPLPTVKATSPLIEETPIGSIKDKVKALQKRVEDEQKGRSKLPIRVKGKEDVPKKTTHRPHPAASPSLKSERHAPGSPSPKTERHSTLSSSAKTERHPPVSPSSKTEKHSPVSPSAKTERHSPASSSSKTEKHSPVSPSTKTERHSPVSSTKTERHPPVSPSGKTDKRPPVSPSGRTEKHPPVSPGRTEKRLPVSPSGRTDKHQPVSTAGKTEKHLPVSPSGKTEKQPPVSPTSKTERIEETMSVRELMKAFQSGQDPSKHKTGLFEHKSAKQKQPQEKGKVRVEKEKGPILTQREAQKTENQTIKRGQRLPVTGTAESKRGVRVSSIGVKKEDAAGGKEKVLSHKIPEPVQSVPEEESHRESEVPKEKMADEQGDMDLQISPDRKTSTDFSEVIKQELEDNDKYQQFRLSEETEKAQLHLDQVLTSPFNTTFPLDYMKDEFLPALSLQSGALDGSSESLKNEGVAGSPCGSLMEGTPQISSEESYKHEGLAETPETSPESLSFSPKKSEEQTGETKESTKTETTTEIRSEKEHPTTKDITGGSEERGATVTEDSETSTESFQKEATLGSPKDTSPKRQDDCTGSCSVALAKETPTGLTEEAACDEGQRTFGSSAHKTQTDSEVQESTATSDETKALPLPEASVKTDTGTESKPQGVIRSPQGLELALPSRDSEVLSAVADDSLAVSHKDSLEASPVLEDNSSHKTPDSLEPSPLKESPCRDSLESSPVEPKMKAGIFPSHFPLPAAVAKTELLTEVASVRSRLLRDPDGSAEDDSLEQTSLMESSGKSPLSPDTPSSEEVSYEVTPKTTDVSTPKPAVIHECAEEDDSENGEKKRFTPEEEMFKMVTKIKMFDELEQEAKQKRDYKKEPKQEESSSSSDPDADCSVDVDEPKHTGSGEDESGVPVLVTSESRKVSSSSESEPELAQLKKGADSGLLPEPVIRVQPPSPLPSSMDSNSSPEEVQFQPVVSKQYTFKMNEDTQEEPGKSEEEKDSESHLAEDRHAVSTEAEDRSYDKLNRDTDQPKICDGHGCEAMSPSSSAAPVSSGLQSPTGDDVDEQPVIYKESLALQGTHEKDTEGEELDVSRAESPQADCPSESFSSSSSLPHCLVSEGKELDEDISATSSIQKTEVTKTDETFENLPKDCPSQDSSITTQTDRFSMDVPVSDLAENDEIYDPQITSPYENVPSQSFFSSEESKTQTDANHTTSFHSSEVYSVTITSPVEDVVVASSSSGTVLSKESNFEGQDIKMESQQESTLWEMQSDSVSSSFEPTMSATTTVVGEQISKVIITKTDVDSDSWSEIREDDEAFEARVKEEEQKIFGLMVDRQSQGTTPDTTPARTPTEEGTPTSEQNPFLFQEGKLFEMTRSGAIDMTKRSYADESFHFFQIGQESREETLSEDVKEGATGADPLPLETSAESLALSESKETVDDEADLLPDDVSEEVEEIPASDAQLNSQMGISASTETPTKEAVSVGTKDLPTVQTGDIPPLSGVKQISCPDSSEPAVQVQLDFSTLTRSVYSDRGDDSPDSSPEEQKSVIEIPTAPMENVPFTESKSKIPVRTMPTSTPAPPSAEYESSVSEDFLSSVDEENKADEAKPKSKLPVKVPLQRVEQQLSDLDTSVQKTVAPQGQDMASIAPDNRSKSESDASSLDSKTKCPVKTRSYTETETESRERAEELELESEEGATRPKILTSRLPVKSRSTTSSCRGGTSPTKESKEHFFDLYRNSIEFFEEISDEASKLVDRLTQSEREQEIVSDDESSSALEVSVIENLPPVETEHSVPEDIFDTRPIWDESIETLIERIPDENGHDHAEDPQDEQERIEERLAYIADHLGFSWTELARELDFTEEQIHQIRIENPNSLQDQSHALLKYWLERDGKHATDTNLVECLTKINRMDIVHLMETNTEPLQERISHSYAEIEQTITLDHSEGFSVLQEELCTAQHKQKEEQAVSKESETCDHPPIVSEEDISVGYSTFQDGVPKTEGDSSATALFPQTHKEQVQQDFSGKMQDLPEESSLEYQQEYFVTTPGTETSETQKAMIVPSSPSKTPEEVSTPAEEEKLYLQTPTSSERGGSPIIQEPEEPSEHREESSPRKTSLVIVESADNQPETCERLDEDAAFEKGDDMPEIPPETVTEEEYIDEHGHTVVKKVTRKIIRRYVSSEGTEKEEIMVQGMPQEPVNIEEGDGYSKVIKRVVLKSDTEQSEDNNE

Row | effect of a mutation on the interaction | Variant
1 | disrupting interaction | D323K
2 | disrupting interaction | E321K
3 | disrupting interaction | E322K

Variants of: B1
Details: with ank2_human ANK2, Q01484
Remark: another data set of the same source

Row | effect of a mutation on the interaction | Variant
4 | decreasing interaction | E322K
